Measurements from patent US20260035431A1 (CAVALRY BIOSCIENCES, published 2026).
Numbering of substitutions follows the chain as printed. Names may count otherwise.

T1: IGFBP2 (UniProt P18065 37-325, limits assumed)
T1 sequence (looked up): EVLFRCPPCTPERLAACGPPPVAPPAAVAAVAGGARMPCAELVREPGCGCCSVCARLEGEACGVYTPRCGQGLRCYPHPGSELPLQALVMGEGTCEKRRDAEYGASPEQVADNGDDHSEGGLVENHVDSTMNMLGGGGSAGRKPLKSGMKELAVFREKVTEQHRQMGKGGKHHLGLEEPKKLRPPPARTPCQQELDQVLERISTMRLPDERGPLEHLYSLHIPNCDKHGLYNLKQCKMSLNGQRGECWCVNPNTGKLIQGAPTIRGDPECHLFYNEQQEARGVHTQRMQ

B1: E3R-F49L-D12A (ligand)
chain: GPRTLCGAELVAALQFVCGDRGFYFNKPTGYGSSSRRAPQTGIVDECCLRSCDLRRLEMYCAPLKPAKSA
B2: E3R-F49L-D12A-L54A (ligand)
chain: B1 chain with L54A
B3: E3R-F49L-L54A (ligand)
chain: B1 chain with A12D, L54A
B4: IGF-1 Des1-3 (SEQ ID NO: 8) as tested in Example 1 (ligand)
chain: MRAAAPAVAATLCGAELVDALQFVCGDRGFYFNKPTGYGSSSRRAPQTGIVDECCFRSCDLRRLEMYCAPLKPAKSA
B5: IGF-1 Des1-3 R37X (ligand)
chain: TLCGAELVDALQFVCGDRGFYFNKPTGYGSSSRAPQTGIVDECCFRSCDLRRLEMYCAPLKPAKSA

How the values were obtained:
Test in all cases: cell-based or functional assay
[1] = molecular target: T2, IGF1 receptor (IGF1R) on DU145 cells or immortalized human meibomian gland epithelial cells (human, UniProt P08069 31-1367)
IGFBP2 = molecular target: T1, IGFBP2
IGFBP3 = IGFBP3 (UniProt P17936 28-291)
[2] = molecular target: T2, IGF1 receptor (IGF1R) on DU145 cells or …; remark: listed apart in the source

T2 sequence (P08069 31-1367): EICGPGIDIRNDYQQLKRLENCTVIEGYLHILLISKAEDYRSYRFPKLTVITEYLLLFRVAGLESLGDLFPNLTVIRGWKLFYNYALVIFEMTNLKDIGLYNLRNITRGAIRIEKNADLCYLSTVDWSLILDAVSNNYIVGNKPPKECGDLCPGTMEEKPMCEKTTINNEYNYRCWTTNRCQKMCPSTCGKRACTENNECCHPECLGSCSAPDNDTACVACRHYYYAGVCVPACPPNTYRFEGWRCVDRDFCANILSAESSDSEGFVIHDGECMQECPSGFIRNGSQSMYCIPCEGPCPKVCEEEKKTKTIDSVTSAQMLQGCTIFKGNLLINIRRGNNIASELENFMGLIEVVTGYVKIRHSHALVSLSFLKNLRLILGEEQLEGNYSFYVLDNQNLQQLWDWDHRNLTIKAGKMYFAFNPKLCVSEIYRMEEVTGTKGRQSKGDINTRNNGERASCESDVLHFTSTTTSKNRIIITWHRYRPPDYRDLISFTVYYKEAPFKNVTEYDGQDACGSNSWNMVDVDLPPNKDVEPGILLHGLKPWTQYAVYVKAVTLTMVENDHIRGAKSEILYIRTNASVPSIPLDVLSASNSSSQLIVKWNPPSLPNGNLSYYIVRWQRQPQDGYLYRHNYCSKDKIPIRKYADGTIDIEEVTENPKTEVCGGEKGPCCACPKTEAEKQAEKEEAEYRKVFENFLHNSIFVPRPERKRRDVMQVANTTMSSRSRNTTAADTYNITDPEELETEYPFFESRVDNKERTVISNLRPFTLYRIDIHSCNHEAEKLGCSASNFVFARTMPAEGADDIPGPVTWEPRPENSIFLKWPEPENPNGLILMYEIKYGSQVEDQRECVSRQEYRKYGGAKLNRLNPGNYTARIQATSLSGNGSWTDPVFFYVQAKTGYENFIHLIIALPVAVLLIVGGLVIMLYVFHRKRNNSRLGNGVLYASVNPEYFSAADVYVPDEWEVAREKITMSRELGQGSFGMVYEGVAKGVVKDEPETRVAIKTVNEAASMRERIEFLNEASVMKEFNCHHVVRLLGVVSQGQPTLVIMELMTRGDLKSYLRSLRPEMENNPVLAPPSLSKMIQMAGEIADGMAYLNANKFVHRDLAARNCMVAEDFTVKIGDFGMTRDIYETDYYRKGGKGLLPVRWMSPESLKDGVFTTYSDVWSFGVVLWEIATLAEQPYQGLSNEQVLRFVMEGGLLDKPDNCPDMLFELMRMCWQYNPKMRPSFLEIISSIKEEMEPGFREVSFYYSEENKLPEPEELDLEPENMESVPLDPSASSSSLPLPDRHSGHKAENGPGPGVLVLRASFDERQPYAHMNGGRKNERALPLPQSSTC
Sequence of IGFBP3 (P17936 28-291 limits assumed): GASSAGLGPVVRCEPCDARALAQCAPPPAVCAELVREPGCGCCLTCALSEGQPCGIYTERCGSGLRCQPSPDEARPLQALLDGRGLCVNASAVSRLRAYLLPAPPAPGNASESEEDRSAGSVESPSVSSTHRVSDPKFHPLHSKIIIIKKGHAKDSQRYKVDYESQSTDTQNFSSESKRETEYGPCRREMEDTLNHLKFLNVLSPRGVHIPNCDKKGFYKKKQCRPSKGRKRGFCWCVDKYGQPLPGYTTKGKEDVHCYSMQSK

| Binder | EC50 (nM), P-AKT in DU145 cells [1] [nM] | % Activity compared to no IGFBP, 4x BP2 (IGFBP2) [%] | % Activity compared to no IGFBP, 4x BP3 (IGFBP3) [%] | EC50, AKT S473 phosphorylation in DU145 cells [2] [nM] |
| --- | --- | --- | --- | --- |
| B1 | 17.7 | 357 | 342 |  |
| B2 | 68.1 | 456 | 344 |  |
| B3 | 11.4 | 175 | 239 |  |
| B4 |  |  |  | 2.3 |
| B5 |  |  |  | 4.1 |
